Source: publication PMC9499646, “Histidine-Rich Glycoprotein Suppresses the S100A8/A9-Mediated Organotropic Metastasis of Melanoma Cells” (International Journal of Molecular Sciences, 2022)

Target: T1, histidine-rich glycoprotein (HRG), human plasma (human, UniProt P04196 19-525, glycosylated (a total of about 20-KDa glycosyl chains))
T1 construct: histidine-rich glycoprotein, human plasma protein; 525 amino acids before processing and secretion; In the pull-down three bands (BP1, BP2, BP3) were all identified as HRG; BP2 and BP3 were estimated to be proteolytic products of BP1; also called plasma HRG; BP1; source: endogenous, healthy human plasma (pull-down)
T1 sequence (looked up): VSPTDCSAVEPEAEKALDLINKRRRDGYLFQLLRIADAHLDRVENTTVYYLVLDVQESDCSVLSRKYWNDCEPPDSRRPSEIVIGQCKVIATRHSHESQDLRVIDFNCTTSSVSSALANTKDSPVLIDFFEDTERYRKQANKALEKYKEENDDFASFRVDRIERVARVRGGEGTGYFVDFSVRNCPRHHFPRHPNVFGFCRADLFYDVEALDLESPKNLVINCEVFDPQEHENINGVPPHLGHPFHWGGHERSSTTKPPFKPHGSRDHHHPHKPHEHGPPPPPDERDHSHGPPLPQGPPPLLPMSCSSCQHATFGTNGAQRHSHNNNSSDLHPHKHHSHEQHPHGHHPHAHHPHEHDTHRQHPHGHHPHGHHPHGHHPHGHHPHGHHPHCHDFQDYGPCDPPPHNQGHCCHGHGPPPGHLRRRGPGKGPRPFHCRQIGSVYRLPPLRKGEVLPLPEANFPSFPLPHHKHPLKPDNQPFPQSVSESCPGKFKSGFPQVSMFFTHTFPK
Assay: ELISA; 96-well plate coated with purified HRG (100 µg/mL); blocked with Blockmaster DB1130; biotinylated S100A8/A9 at different concentrations; HRP-streptavidin, TMB; background of wells without HRG deducted
Conditions: both partners purified

B1: human recombinant S100A8/A9 heterodimer (complex)
chain 1: MLTELEKALNSIIDVYHKYSLIKGNFHAVYRDDLKKLLETECPQYIRKKGADVWFKELDINTDGAVNFQEFLILVIKMGVAAHKKSHEESHKE
chain 2: MTCKMSQLERNIETIINTFHQYSVKLGHPDTLNQGEFKELVRKDLQNFLKKENKNEKVIEHIMEDLDTNADKQLSFEEFIMLMARLTWASHEKMHEGDEGPGHHHKPGLGEGTP
modifications: biotinylated in the ELISA (chain and site not stated) | biotinylated in the ELISA (chain and site not stated)
notes: S100A8 (Calgranulin A), human; S100A9 (Calgranulin B), human; Biotinylated in the ELISA; no biotin is mentioned for the cell assays; also called recombinant human S100A8/A9 heterodimer complex; biotinylated human recombinant S100A8/A9 protein; source: recombinant, highly purified, prepared as described previously [43]
binding result: binds
